Results from patent US20210275684A1 (MONOJUL, published 2021).
Residue numbers refer to the chain shown, from its start. In names and notes the source's numbering stands. Each block holds one binder with its values, some of them ahead of it.

Columns and labels:
[1] = molecular target: T1, recombinant human folate receptor beta (FRβ), residues 22 to 236, with ADPG at the N-terminus and five … (human, UniProt P14207 22-236); assay: SPR, Biacore T200; affinity relative to the chimeric IgG control
T1 construct: also called hFRβ; recombinant FRβ
T1 sequence (P14207 other isoform, or with tags, fused parts or gaps): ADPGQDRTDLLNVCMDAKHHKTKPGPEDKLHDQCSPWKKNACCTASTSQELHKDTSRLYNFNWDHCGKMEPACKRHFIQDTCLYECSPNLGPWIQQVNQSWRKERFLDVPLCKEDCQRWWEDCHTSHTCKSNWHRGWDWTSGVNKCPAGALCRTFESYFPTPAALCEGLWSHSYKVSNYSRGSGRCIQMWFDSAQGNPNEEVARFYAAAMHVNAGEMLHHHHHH
Protocol: (§1) To begin the analysis of the affinity matured antibodies, AS04498 was selected for further analysis. Antibody affinity to antigen protein was determined using a Surface Plasmon Resonance (SPR) biosensor, Biacore T200 (GE Healthcare). Antibody was immobilized on the sensor chip through Fc capture method. Antigen protein was used as the analyte. The data of dissociation (kd) and association (k0) rate constants were obtained using Biacore T200 evaluation software. The equilibrium dissociation constants (KD) were calculated from the ratio of kd over k0.

[2] = molecular target: T1, recombinant human folate receptor beta …; assay: SPR, Biacore T200, antibody captured through Fc, hFRβ as analyte
Protocol: as §1

[3] = molecular target: T1, recombinant human folate receptor beta …; assay: affinity measurement of full length IgG on recombinant FRβ (FIGS. 6A-6C, summarised in Table 5); reference: Chimeric IgG. The sentence says 'higher' of the KD, but the KD is lower, so the affinity is higher
Protocol: as §1

[4] = molecular target: T1, recombinant human folate receptor beta …; assay: combinatorial library screen: ELISA on coated antigen, then affinity (dissociation rate) ranking

B1: AS04498 antibody (affinity matured, full length IgG) (antibody, V domains shown)
VH: EVQLVQSGAEVKKPGASVKVSCKASGYTFTYYAMHWVRQAPGQRLEWMGWINAGNGNTKYSQKFQGRVTITRDTSASTAYMELSSLRSEDTAVYYCARDISYGSFDYWGQGTLVTVSS
VL: SSELTQDPAVSVALGQTVRITCQGDSLRSNYANWYQQKPGQAPVLVIYGQFNRPSGIPDRFSGSSSGNTASLTITGAQAADEADYYCDSRVSTGIHVVFGGGTKLTVLG
notes: also called ASO4498; AM
Fold Increase [1]: 38 fold | Kd [2]: 2.5 nM | koff [2]: 0.000144 s⁻¹ | kon [2]: 57700 M⁻¹ s⁻¹ | fold change of KD against the chimeric IgG control [3]: 38 fold

B2: M909 IgG (parent monoclonal antibody m909, full length IgG) (antibody, V domains shown, not shown: a dimerising Fc or GST)
VH: B1 VH with Y31S
VL: B1 VL with F51N, I95N
notes: also called m909 antibody
Kd [2]: 92.4 nM | koff [2]: 0.00592 s⁻¹ | kon [2]: 64100 M⁻¹ s⁻¹

B3: Clone C (affinity matured antibody from the combinatorial library) (Fab, V domains shown)
VH: B1 VH with N57F
VL: B1 VL
notes: Format in the screen not expressly stated
binding result [4]: binds

B4: Clone F (affinity matured antibody from the combinatorial library) (Fab, V domains shown)
VH: B1 VH
VL: B1 VL with R53L, I95N
notes: as for B3
binding result [4]: binds

B5: Clone G (affinity matured antibody from the combinatorial library) (Fab, V domains shown)
VH: B1 VH with Y31I
VL: B1 VL with R53L
notes: as for B3
binding result [4]: binds

B6: Clone H (affinity matured antibody from the combinatorial library) (Fab, V domains shown)
VH: B1 VH with Y31I
VL: B1 VL
notes: as for B3
binding result [4]: binds

B7: Clone I (affinity matured antibody from the combinatorial library) (Fab, V domains shown)
VH: B1 VH with Y31I
VL: B1 VL with F51N, R53L
notes: as for B3
binding result [4]: binds

B8: Clone B (affinity matured antibody from the combinatorial library) (Fab, V domains shown)
VH: B1 VH with A16V, N57F
VL: B1 VL with R53L
notes: A16V was placed on the heavy chain; Format in the screen not expressly stated
binding result [4]: binds

B9: Clone P (affinity matured antibody from the combinatorial library) (Fab, V domains shown)
VH: B1 VH with Y31I, N57F
VL: B1 VL with F51N, I95N
notes: as for B3
binding result [4]: binds

B10: Clone M (affinity matured antibody from the combinatorial library) (Fab, V domains shown)
VH: B1 VH with Y31I
VL: B1 VL with R53L, I95N
notes: as for B3
binding result [4]: binds

Further lines, results first:

binding result [4]: binds
B11: Clone J (affinity matured antibody from the combinatorial library) (Fab, V domains shown)
VH: B1 VH with N57F
VL: B1 VL with F51N
notes: as for B3

binding result [4]: binds
B12: Clone L (affinity matured antibody from the combinatorial library) (Fab, V domains shown)
VH: B1 VH with Y31I
VL: B1 VL with I95N
notes: as for B3

binding result [4]: binds
B13: Clone A (affinity matured antibody from the combinatorial library) (Fab, V domains shown)
VH: B1 VH with N57F
VL: B1 VL with R53L
notes: as for B3

binding result [4]: binds
B14: Clone O (affinity matured antibody from the combinatorial library) (Fab, V domains shown)
VH: B1 VH
VL: B1 VL with F51N, R53L, I95N
notes: as for B3

binding result [4]: binds
B15: Clone D (affinity matured antibody from the combinatorial library) (Fab, V domains shown)
VH: B1 VH
VL: B1 VL with R53L
notes: as for B3
